# In publication PMC11162770, “The mutation R107Q alters mtSSB ssDNA compaction ability and binding dynamics” (Nucleic Acids Research, 2024):
# Key:
# [1] = target: T1, mtSSB WT-Alexa555/647 (human) (UniProt Q04837); experiment: competition; conditions: WT-Alexa647 vs R107Q-Alexa555 150 nM each (1:1); 24% of ssDNA WT only, 76% both; EMSA: 20 mM Tris-HCl pH 7.8, 10 mM MgCl2, 0.1 mg/ml BSA, 10 mM DTT, 10% glycerol, 2 mM ATP, room temperature; TIRF: ssDNA diluted in 20 mM TrisOAc pH 8, 20% …
# T1 sequence: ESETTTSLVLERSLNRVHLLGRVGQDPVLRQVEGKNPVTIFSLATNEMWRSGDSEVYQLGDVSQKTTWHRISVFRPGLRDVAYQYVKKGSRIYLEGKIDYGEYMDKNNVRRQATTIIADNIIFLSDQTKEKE
# [2] = test system: mtSSB R107Q-Alexa555/647 (human); experiment: competition; conditions: EMSA: 20 mM Tris-HCl pH 7.8, 10 mM MgCl2, 0.1 mg/ml BSA, 10 mM DTT, 10% glycerol, 2 mM ATP
# [3] = target: T1, mtSSB WT-Alexa555/647 (human); experiment: TIRF dissociation; conditions: EMSA: 20 mM Tris-HCl pH 7.8, 10 mM MgCl2, 0.1 mg/ml BSA, 10 mM DTT, 10% glycerol, 2 mM ATP, room temperature, TIRF: ssDNA diluted in 20 mM TrisOAc pH 8, 20% …
# [4] = test system: mtSSB R107Q-Alexa555/647 (human); experiment: TIRF dissociation; conditions: unwrapping almost 3 times faster than WT, EMSA: 20 mM Tris-HCl pH 7.8, 10 mM MgCl2, 0.1 mg/ml BSA, 10 mM DTT, 10% glycerol, 2 mM ATP, room temperature, TIRF: ssDNA diluted in 20 mM TrisOAc pH 8, 20% …
# [5] = target: the molecule itself; experiment: mass photometry; Refeyn TwoMP; proteins prepared at 1 uM and diluted to 100 nM before measurement; data collected for one minute; oligomeric state in solution (tetramer)
# [6] = target: T2, mtSSB WT (His-tag, C-terminal Cys) (human, UniProt Q04837 17-148); experiment: BLI; 1:1 fit; Discussion swaps the 30/60-nt labels; EMSA: 20 mM Tris-HCl pH 7.8, 10 mM MgCl2, 0.1 mg/ml BSA, 10 mM DTT, 10% glycerol, 2 mM ATP, room temperature; TIRF: ssDNA diluted in 20 mM TrisOAc pH 8, 20% sucrose, 20 mM DTT, NaOAc 0-400 mM added; BLI and AFS buffers not in material; conditions: protein: recombinant; tags: N-terminal His; extra C-terminal Cys; chain copies: 4; single strand
# T2 sequence: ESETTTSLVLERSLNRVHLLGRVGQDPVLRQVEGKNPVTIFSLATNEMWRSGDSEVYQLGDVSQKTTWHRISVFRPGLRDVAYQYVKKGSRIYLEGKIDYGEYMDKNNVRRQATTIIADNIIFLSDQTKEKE
# [7] = target: T3, mtSSB R107Q (His-tag, C-terminal Cys) (human, UniProt Q04837 17-148, R107Q); experiment: as above; conditions: protein: recombinant; tags: N-terminal His; extra C-terminal Cys; chain copies: 4; single strand
# T3 sequence: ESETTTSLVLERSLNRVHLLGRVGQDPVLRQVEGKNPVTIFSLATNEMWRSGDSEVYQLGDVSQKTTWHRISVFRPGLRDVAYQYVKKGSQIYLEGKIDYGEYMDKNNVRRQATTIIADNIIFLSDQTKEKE
molecule,measurement,setting,value
lambda ssDNA,binding signal (% of mtSSB on co-coated ssDNA),[1],73
same,binding signal (% of mtSSB on co-coated ssDNA),"[2]; R107Q-Alexa555 150 nM vs WT-Alexa647 15 nM (1:0.1), room …, TIRF: ssDNA diluted in 20 mM TrisOAc pH 8, 20% suc",94
same,binding signal (% of ssDNA coated by R107Q only),"[2]; R107Q-Alexa555 vs WT-Alexa647 150 nM each (1:1), bound only together with WT, room temperature, TIRF: ssDNA diluted in 20 mM TrisOAc pH 8, 20% …",0
same,binding signal (% lost after salt),[3]; 100 mM NaOAc,20
same,binding signal (% lost after salt),[3]; 400 mM NaOAc,20
same,binding signal (% lost after salt),[4]; 100 mM NaOAc,40
same,binding signal (% lost after salt),[4]; 400 mM NaOAc,77
"Mitochondrial single-stranded DNA-binding protein, wild type (mtSSB^WT), lacking the mitochondrial targeting sequence, with N-terminal His-tag and C-terminal … (natural protein, human, one cysteine residue added at the C-terminus for maleimide labelling; not shown: His-tag, N-terminal, kept) ESETTTSLVLERSLNRVHLLGRVGQDPVLRQVEGKNPVTIFSLATNEMWRSGDSEVYQLGDVSQKTTWHRISVFRPGLRDVAYQYVKKGSRIYLEGKIDYGEYMDKNNVRRQATTIIADNIIFLSDQTKEKEC",stoichiometry N,[5],4
"Mitochondrial single-stranded DNA-binding protein variant R107Q (mtSSB^R107Q), lacking the mitochondrial targeting sequence, with N-terminal His-tag and … (natural protein, human, one cysteine residue added at the C-terminus for maleimide labelling; R107Q is a variant found in patients; PDB 6RUP is the wild-type parent's structure; not shown: His-tag, N-terminal, kept) ESETTTSLVLERSLNRVHLLGRVGQDPVLRQVEGKNPVTIFSLATNEMWRSGDSEVYQLGDVSQKTTWHRISVFRPGLRDVAYQYVKKGSQIYLEGKIDYGEYMDKNNVRRQATTIIADNIIFLSDQTKEKEC",stoichiometry N,[5],4
TTTTTTTTTTTTTTTTTTTTTTTTTTTTTT (ssDNA) [poly-dT30],Kd,[6],2.18 ± 0.1 nM
same,Kd,[7],1.35 ± 0.04 nM
poly-dT60 (ssDNA) DNA: TTTTTTTTTTTTTTTTTTTTTTTTTTTTTTTTTTTTTTTTTTTTTTTTTTTTTTTTTTTT,Kd,[6],1.17 ± 0.02 nM
same,Kd,[7],1.18 ± 0.02 nM
